One block for each binder: values may come before it.
Columns and labels:
[1] = target: T1, human FcγRIIA_131R (CD32a) extracellular domain (human, UniProt P12318 34-217); assay: SPR at 25 C, antibody captured on Protein A chip
T1 construct: extracellular domain
T1 sequence (looked up): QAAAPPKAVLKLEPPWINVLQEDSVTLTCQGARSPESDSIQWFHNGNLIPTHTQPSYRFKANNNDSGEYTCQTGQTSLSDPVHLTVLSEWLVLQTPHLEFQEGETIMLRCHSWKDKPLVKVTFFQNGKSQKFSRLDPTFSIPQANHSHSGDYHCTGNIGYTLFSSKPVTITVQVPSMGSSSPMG
Protocol: (§1) Briefly, the surfaces of all 4 flow cells were activated by injecting a 1:1 mixture of EDC/NHS for 7 minutes at 10 μL/minute. […] Un-reacted sites were blocked with a 7-minute injection of ethanolamine at 10 μL/minute. Injections of 2×10 μL of glycine pH 1.5 were used to remove any noncovalently associated protein.
(§2) For FcγRI binding, antibodies were diluted to 2.5 g/mL in running buffer (1x HBS-EP+, Teknova P/N H8022), and approximately 150 RU of each antibody was captured in flow cells 2 through 4 (RUcaptured). FC1 was the reference flow cell, therefore, no antibody was captured in FC1. […] Duplicate injections of each concentration were injected over all FCs at 40 μL/minute for 120 seconds followed by a 1200 second dissociation phase. Regeneration was performed by injecting 15 μL of 10 mM glycine pH 1.5 at 30 μL/minute over all FCs. Reference-subtracted data was collected as FC2-FC1, FC3-FC1, and FC4-FC1. The measurements were obtained at 25° C. The affinity (KD) was calculated using either steady state equilibrium analysis with the Scrubber 2 Biacore® Evaluation Software or a “1:1 (Langmuir) binding” model in BIA Evaluation.
(§3) For FcγRIIa, FcγRIIb, and FcγRIIIa binding, antibodies were diluted to 5 μg/mL in running buffer, and approximately 500 RU is captured in flow cells 2 through 4 (RUcaptured). FC1 is the reference flow cell. […] Duplicate injections of each concentration were injected over all FCs at 40 L/minute for 60 seconds followed by a 120 second dissociation phase. Regeneration was performed by injecting 15μL of 10 mM glycine pH 1.5 at 30 μL/minute over all FCs.

[2] = target: T2, human FcγRIIIA_158F (CD16a) extracellular domain (human, UniProt P08637 17-208); assay: SPR at 25 C, antibody captured on Protein A chip
T2 construct: extracellular domain
T2 sequence (P08637 17-208): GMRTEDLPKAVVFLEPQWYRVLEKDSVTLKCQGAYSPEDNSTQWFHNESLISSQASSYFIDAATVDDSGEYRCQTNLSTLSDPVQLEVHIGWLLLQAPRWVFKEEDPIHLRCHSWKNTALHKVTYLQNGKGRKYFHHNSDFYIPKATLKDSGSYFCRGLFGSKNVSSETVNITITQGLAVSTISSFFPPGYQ
Protocol: as §1, §2, §3

[3] = target: T3, human FcγRI (CD64) extracellular domain (human, UniProt P12314 16-292); assay: SPR at 25 C, antibody captured on Protein A chip
T3 construct: extracellular domain; also called FcγRI ECD
T3 sequence (P12314 16-292): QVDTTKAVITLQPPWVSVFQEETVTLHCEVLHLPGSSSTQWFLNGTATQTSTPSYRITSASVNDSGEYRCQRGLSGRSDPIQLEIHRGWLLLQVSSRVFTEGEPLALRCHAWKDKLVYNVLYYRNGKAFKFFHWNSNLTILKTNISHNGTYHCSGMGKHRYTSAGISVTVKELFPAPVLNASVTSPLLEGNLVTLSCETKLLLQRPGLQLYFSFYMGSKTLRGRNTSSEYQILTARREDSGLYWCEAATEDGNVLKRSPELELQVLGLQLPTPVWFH
Protocol: as §1, §2, §3

[4] = target: T4, human FcγRIIb (CD32b) extracellular domain (human, UniProt P31994 43-217); assay: SPR at 25 C, antibody captured on Protein A chip
T4 construct: extracellular domain
T4 sequence (looked up): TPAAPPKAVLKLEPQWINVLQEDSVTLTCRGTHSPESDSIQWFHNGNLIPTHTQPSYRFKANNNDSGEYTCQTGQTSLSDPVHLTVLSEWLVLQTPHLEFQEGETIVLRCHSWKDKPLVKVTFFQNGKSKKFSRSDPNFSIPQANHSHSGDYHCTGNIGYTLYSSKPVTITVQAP
Protocol: as §1, §2, §3

[5] = target: T5, canine LEPR-ECD-His (canine); assay: SPR (Biacore T200), antibody captured on Protein A/G chip, His-tagged LEPR-ECD as analyte, 1:1 fit; mean n=3, SD 2.4E-8
T5 chain: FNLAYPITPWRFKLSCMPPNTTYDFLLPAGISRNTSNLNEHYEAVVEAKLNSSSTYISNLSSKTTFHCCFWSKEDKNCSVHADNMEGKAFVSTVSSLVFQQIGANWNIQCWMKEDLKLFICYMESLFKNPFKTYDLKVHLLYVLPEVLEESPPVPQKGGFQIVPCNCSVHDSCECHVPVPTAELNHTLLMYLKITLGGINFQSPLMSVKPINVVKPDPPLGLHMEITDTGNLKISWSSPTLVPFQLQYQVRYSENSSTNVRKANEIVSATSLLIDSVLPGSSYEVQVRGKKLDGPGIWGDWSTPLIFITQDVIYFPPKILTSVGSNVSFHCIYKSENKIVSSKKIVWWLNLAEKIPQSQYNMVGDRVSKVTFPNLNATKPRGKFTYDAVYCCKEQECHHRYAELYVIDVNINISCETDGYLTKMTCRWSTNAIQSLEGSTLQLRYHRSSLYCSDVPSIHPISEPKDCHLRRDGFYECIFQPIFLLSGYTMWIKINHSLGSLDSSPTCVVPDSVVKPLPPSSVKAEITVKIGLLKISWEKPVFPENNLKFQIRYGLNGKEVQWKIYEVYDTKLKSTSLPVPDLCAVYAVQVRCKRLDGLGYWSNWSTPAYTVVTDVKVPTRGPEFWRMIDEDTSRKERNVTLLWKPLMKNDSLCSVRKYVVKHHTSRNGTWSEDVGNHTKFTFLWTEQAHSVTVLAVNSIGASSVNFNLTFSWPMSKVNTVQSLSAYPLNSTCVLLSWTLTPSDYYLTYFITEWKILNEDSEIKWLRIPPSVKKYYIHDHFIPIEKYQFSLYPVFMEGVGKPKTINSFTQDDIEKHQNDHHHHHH
Protocol: His-tagged ECDs were expressed and purified for each species and used for affinity analysis. A Protein A/G chip (Xantec, Cat #PAGHC200M) was utilized in this experiment with HBS-EP +0.01% BSA as running buffer. Antibodies were diluted to 1 μg/mL in running buffer and captured to a single flow cell on the chip surface. Each species of LEPR-ECD was diluted to 1000 nM in running buffer followed by 2-fold serial dilution. Each ligand concentration was injected over all flow cells at 100 L/min for 150 seconds followed by a 600 second dissociation phase. Regeneration was performed by injecting 10 mM glycine pH1.5 for 30 seconds at 10 μL/min. Data were analyzed in Biacore T200 Evaluation Software 3.1 by flow-cell 1 reference subtraction along with 0 nM blank subtraction. Data were fit globally using a “1:1 Binding” binding model to determine the on-rate (kₐ) and off-rate (kd) for each ligand. The affinity (KD) was calculated from the binding kinetics according to the relationship KD=kₐ/kd. Data reported as mean±standard deviation of experimental replicates.

[6] = target: T6, human LEPR, full length, on HEK293-STAT3Luc-hLepR1 cells (Homo sapiens, UniProt P48357 22-1165); assay: flow cytometry on live HEK293-STAT3Luc-hLepR1 cells, AF647 anti-human IgG; average of 4 runs, SD 1.0
T6 construct: also called human LEPR on live cell surface
T6 sequence: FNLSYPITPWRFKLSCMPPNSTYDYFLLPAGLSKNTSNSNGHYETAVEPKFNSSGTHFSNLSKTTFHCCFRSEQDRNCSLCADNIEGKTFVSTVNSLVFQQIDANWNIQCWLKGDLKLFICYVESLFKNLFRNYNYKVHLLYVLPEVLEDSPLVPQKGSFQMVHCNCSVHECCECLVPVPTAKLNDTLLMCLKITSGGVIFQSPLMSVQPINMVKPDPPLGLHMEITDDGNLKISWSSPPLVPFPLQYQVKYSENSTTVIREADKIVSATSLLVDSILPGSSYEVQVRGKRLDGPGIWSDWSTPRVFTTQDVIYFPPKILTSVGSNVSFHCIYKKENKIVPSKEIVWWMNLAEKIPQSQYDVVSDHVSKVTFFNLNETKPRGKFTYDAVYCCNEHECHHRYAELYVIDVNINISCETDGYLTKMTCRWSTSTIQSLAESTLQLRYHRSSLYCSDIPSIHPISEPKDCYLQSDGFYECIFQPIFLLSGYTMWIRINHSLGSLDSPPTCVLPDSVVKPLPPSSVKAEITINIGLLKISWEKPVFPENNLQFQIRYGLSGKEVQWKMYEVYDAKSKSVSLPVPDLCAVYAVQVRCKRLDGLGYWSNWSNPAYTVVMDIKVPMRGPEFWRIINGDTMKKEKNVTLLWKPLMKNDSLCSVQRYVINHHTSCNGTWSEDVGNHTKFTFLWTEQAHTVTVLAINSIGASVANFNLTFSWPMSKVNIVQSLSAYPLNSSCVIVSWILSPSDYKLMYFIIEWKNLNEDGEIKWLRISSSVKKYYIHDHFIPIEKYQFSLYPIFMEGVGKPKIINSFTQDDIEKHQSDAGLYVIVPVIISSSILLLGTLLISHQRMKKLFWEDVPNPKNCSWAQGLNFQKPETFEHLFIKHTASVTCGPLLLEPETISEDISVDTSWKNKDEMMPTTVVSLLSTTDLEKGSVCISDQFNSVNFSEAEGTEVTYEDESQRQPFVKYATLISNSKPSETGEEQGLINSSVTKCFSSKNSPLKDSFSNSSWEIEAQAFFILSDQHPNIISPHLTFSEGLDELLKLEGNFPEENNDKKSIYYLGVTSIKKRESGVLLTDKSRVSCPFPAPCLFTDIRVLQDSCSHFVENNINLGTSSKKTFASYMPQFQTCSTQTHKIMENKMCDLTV
Protocol: (§4) Cells were incubated in blocking buffer for 10 mins at room temperature. After one rinse with PBS, cells were transferred to U-bottom 96-well plate at 200 μL and 0.2˜0.26^e6 cells/well. […] Cells were then incubated with 30 μL/well of antibodies diluted in flow buffer at 1000 nM as high dose followed by 9-point dose response including 5-fold dilutions not including 0 (totaling 9 concentrations for each Antibody) for 30 minutes at 4° C. in dark.

[7] = target: T7, cynomolgus monkey LEPR, full length, on HEK293-STAT3Luc-cmLepR2 cells (Macaca fascicularis); assay: flow cytometry on live HEK293-STAT3Luc-cmLepR2 cells, AF647 anti-human IgG; average of 4 runs, SD 0.6
T7 construct: whole, on cells; also called cyno-LEPR; Macaca fascicularis LEPR
Protocol: as §4

Kd [5]: 130 nM
B1: Antibody A (antibody, human IgG1, kappa, L234A L235A)
heavy: EVQLLESGGGLVQPGGSLRLSCAASGFTFSSFAMSWVRQAPGKGLEWVSAISGSGGSTYSADSVRGRFTISRDNSKNTLYLQMNSLRAEDTAVYYCAKDQGDWDFLFDYWGQGTLVTVSSASTKGPSVFPLAPSSKSTSGGTAALGCLVKDYFPEPVTVSWNSGALTSGVHTFPAVLQSSGLYSLSSVVTVPSSSLGTQTYICNVNHKPSNTKVDKRVEPKSCDKTHTCPPCPAPEAAGGPSVFLFPPKPKDTLYITREPEVTCVVVSVSHEDPEVKFNWYVDGVEVHNAKTKPREEQYNSTYRVVSVLTVLHQDWLNGKEYKCKVSNKALPAPIEKTISKAKGQPREPQVYTLPPSREEMTKNQVSLTCLVKGFYPSDIAVEWESNGQPENNYKTTPPVLDSDGSFFLYSKLTVDKSRWQQGNVFSCSVMHEALHNHYTQKSLSLSPGK
light: DIQMTQSPSFLSASVGDRVTITCRASQGISSSLAWYQQKPGKAPKLLIYTASTLQSGVPSRFSGSGSGTEFTLTISSLQPEDFATYYCQQLIYYPFTFGQGTKVEIKRTVAAPSVFIFPPSDEQLKSGTASVVCLLNNFYPREAKVQWKVDNALQSGNSQESVTEQDSKDSTYSLSSTLTLSKADYEKHKVYACEVTHQGLSSPVTKSFNRGEC
notes: IgG1 mAb
binding result [1]: no binding (tested: receptor ECD tested up to 10 µM)
binding result [2]: no binding (tested: receptor ECD tested up to 10 µM)
binding result [3]: no binding (tested: FcγRI ECD tested up to 200 nM)
binding result [4]: no binding (tested: receptor ECD tested up to 10 µM)

EC50 [6]: 1.33 nM
EC50 [7]: 0.83 nM
B2: Antibody C (antibody, human IgG1, kappa, L234A L235A, V domains shown)
VH: EVQLLESGGGLVQPGGSLRLSCAASGFTFSSFAMSWVRQAPGKGLEWVSAISGSGGSTYSADSVRGRFTISRDNSKNTLYLQMNSLRAEDTAVYYCAKDQGDWDFLFDYWGQGTLVTVSS
VL: DIQMTQSPSFLSASVGDRVTITCRASQGISSSLAWYQQKPGKAPKLLIYTASTLQSGVPSRFSGSGSGTEFTLTISSLQPEDFATYYCQQLNYYPFSFGQGTKVEIKR

From patent US20250289897A1 (Eli Lilly, published 2025)
